Laboratory results reported in paper PMC10817188.

Key:
[1] = molecular target: KPC-2 carbapenemase (Klebsiella pneumoniae carbapenemase 2) (Klebsiella pneumoniae (endogenous in ATCC BAA-1705)) (UniProt Q9F663)
[2] = molecular target: β-lactamase obtained from Bacillus cereus 569H (Bacillus cereus 569H)
[3] = molecular target: β-lactamase obtained from Bacillus cereus 569H (Bacillus cereus 569H); remark: listed apart in the source

Sequence of UniProt Q9F663 (Q9F663 25-293): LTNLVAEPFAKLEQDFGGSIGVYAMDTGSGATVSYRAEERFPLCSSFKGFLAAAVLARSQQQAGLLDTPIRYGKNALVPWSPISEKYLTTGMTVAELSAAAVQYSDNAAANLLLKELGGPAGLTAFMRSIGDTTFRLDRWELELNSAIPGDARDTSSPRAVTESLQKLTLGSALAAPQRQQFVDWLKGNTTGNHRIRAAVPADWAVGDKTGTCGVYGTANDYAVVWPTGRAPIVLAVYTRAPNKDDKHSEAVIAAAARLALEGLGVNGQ

B1: truncated BLIP-II (tBLIP-II), β-lactamase inhibitory protein-II without its signal sequence (natural protein)
chain: ATSVVAWGGNNDWGEATVPAEAQSGVDAIAGGYFHGLALKGGKVLGWGANLNGQLTMPAATQSGVDAIAAGNYHSLALKDGEVIAWGGNEDGQTTVPAEARSGVDAIAAGAWASYALKDGKVIAWGDDSDGQTTVPAEAQSGVTALDGGVYTALAVKNGGVIAWGDNYFGQTTVPAEAQSGVDDVAGGIFHSLALKDGKVIAWGDNRYKQTTVPTEALSGVSAIASGEWYSLALKNGKVIAWGSSRTAPSSVQSGVSSIEAGPNAAYALKG
B1 showed an MIC of meropenem against K. pneumoniae ATCC BAA-1705 (bla KPC-2 positive) with 10 or 20 μM protein (16 μg/mL without protein; 8 at both concentrations) [1] of 8 µg/mL, an IC50 of inhibition of nitrocefin hydrolysis by the β-lactamase (inhibitor 0.0078-2 μM, pre-incubated 15 min at 30°C, absorbance at 490 nM) [2] of 51.1 nM and a reduction in β-lactamase activity (nitrocefin hydrolysis) at 0.0625 μM inhibitor; constant at higher concentrations up to 2 μM [3] of 70%.
